The results in this text go back to paper PMC4029989, “Selection of a Novel DNA Aptamer for Assay of Intracellular Interferon-Gamma”.

Data set [1] deals with T1, Interferon-gamma (IFN-γ) (Homo sapiens, UniProt P01579 24-161). Description: flow cytometry bead binding; PBS binding buffer (SELEX with 0.1 mg/mL salmon sperm DNA and 1 mg/mL BSA, 37 °C); Kd assay on beads in binding buffer, room temperature, 30 min; pH not stated. Particulars: protein: commercial; chain copies: 2; label: FITC. For orientation: Flow cytometry measures light scatter and fluorescence of single cells or particles in a stream.
T1 sequence (P01579 24-161): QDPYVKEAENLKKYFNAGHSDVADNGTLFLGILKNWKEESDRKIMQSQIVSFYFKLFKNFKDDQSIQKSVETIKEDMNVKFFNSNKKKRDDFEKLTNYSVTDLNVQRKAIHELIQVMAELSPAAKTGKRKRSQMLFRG

In data set [2] the target is Bovine serum albumin (BSA) (Bos taurus, UniProt P02769 25-607). Description: flow cytometry bead binding; bound albumin to a large degree; PBS binding buffer (SELEX with 0.1 mg/mL salmon sperm DNA and 1 mg/mL BSA, 37 °C); Kd assay on beads in binding buffer, room temperature, 30 min; pH not stated. Particulars: protein: commercial; label: FITC.
Bovine serum albumin (BSA), sequence (P02769 25-607): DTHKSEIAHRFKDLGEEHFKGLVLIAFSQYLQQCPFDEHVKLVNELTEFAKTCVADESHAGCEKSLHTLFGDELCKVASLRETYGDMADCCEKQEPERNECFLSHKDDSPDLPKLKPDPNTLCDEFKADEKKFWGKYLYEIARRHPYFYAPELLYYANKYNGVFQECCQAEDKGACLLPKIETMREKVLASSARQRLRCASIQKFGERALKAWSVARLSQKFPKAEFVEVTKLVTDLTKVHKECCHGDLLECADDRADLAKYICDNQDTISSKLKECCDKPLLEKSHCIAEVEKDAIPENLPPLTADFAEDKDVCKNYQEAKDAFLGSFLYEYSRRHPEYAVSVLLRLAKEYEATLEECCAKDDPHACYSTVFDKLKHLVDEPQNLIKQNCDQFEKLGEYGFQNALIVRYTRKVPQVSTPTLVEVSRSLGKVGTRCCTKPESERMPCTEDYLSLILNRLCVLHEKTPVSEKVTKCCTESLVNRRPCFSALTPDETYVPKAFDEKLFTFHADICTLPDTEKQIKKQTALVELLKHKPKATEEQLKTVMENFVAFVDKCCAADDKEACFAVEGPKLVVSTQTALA
The target of data set [3] is Interferon-gamma, intracellular (Homo sapiens, UniProt P01579 24-161). Description: flow cytometry of fixed permeabilized cells; 0.05 pM aptamer; no correlation with stimulated cells; PBS binding buffer (SELEX with 0.1 mg/mL salmon sperm DNA and 1 mg/mL BSA, 37 °C); Kd assay on beads in binding buffer, room temperature, 30 min; pH not stated. Conditions: protein: native; chain copies: 2.
Interferon-gamma, intracellular, sequence (P01579 24-161): as the sequence (P01579 24-161) above

For data set [4], the target named is T1, Interferon-gamma (IFN-γ). Description: flow cytometry bead binding; binding buffer (PBS), room temperature, blank-bead signal subtracted; PBS binding buffer (SELEX with 0.1 mg/mL salmon sperm DNA and 1 mg/mL BSA, 37 °C); Kd assay on beads in binding buffer, room temperature, 30 min; pH not stated. Conditions: protein: commercial; chain copies: 2; label: FITC.

On to GGGGTTGGTTGTGTTGGGTGTTGTGT (ssDNA) [T2], for which the binding result (in the data set with Interferon-gamma (IFN-γ) [1]; in data set [2]) was “binds” each time.

B1: A2 (ssDNA)
DNA: TGCCCGTGTCCCGAGGAGGTGCCCTATTTTGCTTGATTATCTCTAAGGGATTTGGGCGG
Turning to B1, the binding result in data set [3] is “no binding”.

B2: B1-4 (ssDNA)
DNA: CCGCCCAAATCCCTAAGAGAAGACTGTAATGACATCAAACCAGACACACTACACACGCA
What is called Kd is a measure of binding affinity in units of concentration. A low value points to higher affinity. On to B2, for which the affinity in the data set with Interferon-gamma (IFN-γ) [4], expressed as Kd, was 74.5 nM. This counts as double-digit nanomolar.
